Test results reported in patent publication US10800847.

Experiments:
[1] = biological target: HLA-A*2902 (A29) single antigen on beads (human); assay: Luminex, iBead vs regular bead, IVIg 1:8
[2] = biological target: HLA-A*3001 (A30) single antigen on beads (human); assay: Luminex, iBead vs regular bead, IVIg 1:8
[3] = biological target: HLA-A*3101 (A31) single antigen on beads (human); assay: Luminex, iBead vs regular bead, IVIg 1:8
[4] = biological target: HLA-A*3301 (A33) single antigen on beads (human); assay: Luminex, iBead vs regular bead, IVIg 1:8
[5] = biological target: HLA-A*3303 (A33) single antigen on beads (human); assay: Luminex, iBead vs regular bead, IVIg 1:8
[6] = biological target: HLA-A*3401 (A34) single antigen on beads (human); assay: Luminex, iBead vs regular bead, IVIg 1:8
[7] = biological target: HLA-A*3402 (A34) single antigen on beads (human); assay: Luminex, iBead vs regular bead, IVIg 1:8
[8] = biological target: HLA-A*3601 (A36) single antigen on beads (human); assay: Luminex, iBead vs regular bead, IVIg 1:8
[9] = biological target: HLA-A*6601 (A66) single antigen on beads (human); assay: Luminex, iBead vs regular bead, IVIg 1:8
[10] = biological target: HLA-A*6801 (A68) single antigen on beads (human); assay: Luminex, iBead vs regular bead, IVIg 1:8
HLA-B*0702 (B7) (human) [11] = assay: Luminex regular beads (#7), IVIg diluted 1:8
HLA-B*0801 (B8) (human) [12] = assay: Luminex regular beads (#7), IVIg diluted 1:8
HLA-B*1301 (B13) (human) [13] = assay: Luminex regular beads (#7), IVIg diluted 1:8
HLA-B*1302 (B13) (human) [14] = assay: Luminex regular beads (#7), IVIg diluted 1:8
HLA-B*1401 (B64) (human) [15] = assay: Luminex regular beads (#7), IVIg diluted 1:8
HLA-B*1402 (B65) (human) [16] = assay: Luminex regular beads (#7), IVIg diluted 1:8
HLA-B*1502 (B75) (human) [17] = assay: Luminex regular beads (#7), IVIg diluted 1:8
HLA-B*1503 (B72) (human) [18] = assay: Luminex regular beads (#7), IVIg diluted 1:8
HLA-B*1510 (B71) (human) [19] = assay: Luminex regular beads (#7), IVIg diluted 1:8
HLA-B*1511 (B75) (human) [20] = assay: Luminex regular beads (#7), IVIg diluted 1:8
HLA-B*1513 (B77) (human) [21] = assay: Luminex regular beads (#7), IVIg diluted 1:8
HLA-B*1516 (B63) (human) = assay: Luminex regular beads (#7), IVIg diluted 1:8
HLA-B*1801 (B18) (human) [22] = assay: Luminex regular beads (#7), IVIg diluted 1:8
[23] = biological target: Serum albumin on negative control beads (HSA/BSA) (human or bovine); assay: Luminex regular beads (#7), IVIg diluted 1:8
HLA-B*0702 (B7) (human) [24] = assay: iBead MFI against regular-bead MFI, IVIg diluted 1:8
HLA-B*0801 (B8) (human) [25] = assay: as above
HLA-B*1301 (B13) (human) [26] = assay: as above
HLA-B*1302 (B13) (human) [27] = assay: as above
HLA-B*1401 (B64) (human) [28] = assay: as above
HLA-B*1402 (B65) (human) [29] = assay: as above
HLA-B*1501 (B62) (human) = assay: as above
HLA-B*1502 (B75) (human) [30] = assay: as above
HLA-B*1503 (B72) (human) [31] = assay: as above
HLA-B*1510 (B71) (human) [32] = assay: as above
HLA-B*1511 (B75) (human) [33] = assay: as above
HLA-B*1512 (B76) (human) [34] = assay: as above
HLA-B*1801 (B18) (human) [35] = assay: as above
[36] = biological target: Serum albumin on negative control beads (HSA/BSA) (human or bovine); assay: as above
[37] = biological target: HLA-A*6802 (A68) single antigen on Luminex beads (human); assay: Luminex single antigen bead assay, iBeads (#6), IVIg 1:8
[38] = biological target: HLA-A*6901 (A69) single antigen on Luminex beads (human); assay: as above
[39] = biological target: HLA-A*8001 (A80) single antigen on Luminex beads (human); assay: as above
[40] = biological target: HLA-A*6901 (A69) single antigen on Luminex beads (human); assay: Luminex single antigen bead assay, iBeads vs regular beads, IVIg 1:8
[41] = biological target: HLA-A*8001 (A80) single antigen on Luminex beads (human); assay: as above
HLA-B*1512 (B76) (human) [42] = assay: Luminex regular beads (#7), IVIg diluted 1:8
HLA-B*1513 (B77) (human) [43] = assay: iBead MFI against regular-bead MFI, IVIg diluted 1:8

## IVIg Gamunex-C Lot NKLK1 (antibody)
[1]
  Difference % (iBead MFI vs regular bead MFI): 253%
[2]
  Difference % (iBead MFI vs regular bead MFI): 9%
[3]
  Difference % (iBead MFI vs regular bead MFI): 0%
[4]
  Difference % (iBead MFI vs regular bead MFI): 42%
[5]
  Difference % (iBead MFI vs regular bead MFI): 189%
[6]
  Difference % (iBead MFI vs regular bead MFI): 59%
[7]
  Difference % (iBead MFI vs regular bead MFI): 0%
[8]
  Difference % (iBead MFI vs regular bead MFI): 120%
[9]
  Difference % (iBead MFI vs regular bead MFI): 166%
[10]
  Difference % (iBead MFI vs regular bead MFI): 0%
HLA-B*0702 (B7) (human) [11]
  MFI: 837 MFI
HLA-B*0801 (B8) (human) [12]
  MFI: 1760 MFI
HLA-B*1301 (B13) (human) [13]
  MFI: 3520 MFI
HLA-B*1302 (B13) (human) [14]
  MFI: 2530 MFI
HLA-B*1401 (B64) (human) [15]
  MFI: 2280 MFI
HLA-B*1402 (B65) (human) [16]
  MFI: 1440 MFI
HLA-B*1502 (B75) (human) [17]
  MFI: 1540 MFI
HLA-B*1503 (B72) (human) [18]
  MFI: 2300 MFI
HLA-B*1510 (B71) (human) [19]
  MFI: 1620 MFI
HLA-B*1511 (B75) (human) [20]
  MFI: 3820 MFI
HLA-B*1513 (B77) (human) [21]
  MFI: 3210 MFI
HLA-B*1516 (B63) (human)
  MFI: 3130 MFI
HLA-B*1801 (B18) (human) [22]
  MFI: 567 MFI
[23]
  MFI: 10300 MFI
HLA-B*0702 (B7) (human) [24]
  Difference % (iBead vs regular bead): -100%
HLA-B*0801 (B8) (human) [25]
  Difference % (iBead vs regular bead): -100%
HLA-B*1301 (B13) (human) [26]
  Difference % (iBead vs regular bead): -71%
HLA-B*1302 (B13) (human) [27]
  Difference % (iBead vs regular bead): -100%
HLA-B*1401 (B64) (human) [28]
  Difference % (iBead vs regular bead): -82%
HLA-B*1402 (B65) (human) [29]
  Difference % (iBead vs regular bead): -100%
HLA-B*1501 (B62) (human)
  Difference % (iBead vs regular bead): 253%
HLA-B*1502 (B75) (human) [30]
  Difference % (iBead vs regular bead): -94%
HLA-B*1503 (B72) (human) [31]
  Difference % (iBead vs regular bead): -100%
HLA-B*1510 (B71) (human) [32]
  Difference % (iBead vs regular bead): -79%
HLA-B*1511 (B75) (human) [33]
  Difference % (iBead vs regular bead): -51%
HLA-B*1512 (B76) (human) [34]
  Difference % (iBead vs regular bead): 51%
HLA-B*1801 (B18) (human) [35]
  Difference % (iBead vs regular bead): -100%
[36]
  Difference % (iBead vs regular bead): -24%
[37]
  MFI: 1950 MFI
[38]
  MFI: 2880 MFI
[39]
  MFI: 1190 MFI
[40]
  Difference % (iBead MFI against regular bead MFI): 4%
[41]
  Difference % (iBead MFI against regular bead MFI): -29%

## IVIg GamaSTAN S/D (Talecris Biotherapeutics, USA) (antibody)
[1]
  Difference % (iBead MFI vs regular bead MFI): 348%
[2]
  Difference % (iBead MFI vs regular bead MFI): -32%
[3]
  Difference % (iBead MFI vs regular bead MFI): 189%
[4]
  Difference % (iBead MFI vs regular bead MFI): 68%
[5]
  Difference % (iBead MFI vs regular bead MFI): 125%
[6]
  Difference % (iBead MFI vs regular bead MFI): 42%
[7]
  Difference % (iBead MFI vs regular bead MFI): 76%
[8]
  Difference % (iBead MFI vs regular bead MFI): 145%
[9]
  Difference % (iBead MFI vs regular bead MFI): 86%
[10]
  Difference % (iBead MFI vs regular bead MFI): 230%
HLA-B*0702 (B7) (human) [11]
  MFI: 2220 MFI
HLA-B*0801 (B8) (human) [12]
  MFI: 884 MFI
HLA-B*1301 (B13) (human) [13]
  MFI: 2240 MFI
HLA-B*1302 (B13) (human) [14]
  MFI: 2220 MFI
HLA-B*1401 (B64) (human) [15]
  MFI: 1750 MFI
HLA-B*1402 (B65) (human) [16]
  MFI: 670 MFI
HLA-B*1502 (B75) (human) [17]
  MFI: 526 MFI
HLA-B*1503 (B72) (human) [18]
  MFI: 689 MFI
HLA-B*1510 (B71) (human) [19]
  MFI: 857 MFI
HLA-B*1511 (B75) (human) [20]
  MFI: 2820 MFI
HLA-B*1512 (B76) (human) [42]
  MFI: 2660 MFI
HLA-B*1513 (B77) (human) [21]
  MFI: 1240 MFI
HLA-B*1516 (B63) (human)
  MFI: 3540 MFI
HLA-B*1801 (B18) (human) [22]
  MFI: 0 MFI
[23]
  MFI: 3790 MFI
HLA-B*0702 (B7) (human) [24]
  Difference % (iBead vs regular bead): -10%
HLA-B*0801 (B8) (human) [25]
  Difference % (iBead vs regular bead): -63%
HLA-B*1401 (B64) (human) [28]
  Difference % (iBead vs regular bead): -85%
HLA-B*1402 (B65) (human) [29]
  Difference % (iBead vs regular bead): -100%
HLA-B*1501 (B62) (human)
  Difference % (iBead vs regular bead): 270%
HLA-B*1503 (B72) (human) [31]
  Difference % (iBead vs regular bead): -100%
HLA-B*1510 (B71) (human) [32]
  Difference % (iBead vs regular bead): -43%
HLA-B*1511 (B75) (human) [33]
  Difference % (iBead vs regular bead): -16%
HLA-B*1512 (B76) (human) [34]
  Difference % (iBead vs regular bead): 125%
HLA-B*1513 (B77) (human) [43]
  Difference % (iBead vs regular bead): -27%
HLA-B*1801 (B18) (human) [35]
  Difference % (iBead vs regular bead): 0%
[36]
  Difference % (iBead vs regular bead): 33%

## IVIg Gamunex-C Lot NKLG1 (antibody)
[1]
  Difference % (iBead MFI vs regular bead MFI): 243%
[2]
  Difference % (iBead MFI vs regular bead MFI): 112%
[3]
  Difference % (iBead MFI vs regular bead MFI): 1960%
[4]
  Difference % (iBead MFI vs regular bead MFI): 163%
[5]
  Difference % (iBead MFI vs regular bead MFI): 599%
[6]
  Difference % (iBead MFI vs regular bead MFI): 47%
[9]
  Difference % (iBead MFI vs regular bead MFI): 722%
HLA-B*0702 (B7) (human) [11]
  MFI: 1540 MFI
HLA-B*1302 (B13) (human) [14]
  MFI: 3100 MFI
HLA-B*1402 (B65) (human) [16]
  MFI: 2250 MFI
HLA-B*1502 (B75) (human) [17]
  MFI: 1520 MFI
HLA-B*1503 (B72) (human) [18]
  MFI: 2380 MFI
HLA-B*1510 (B71) (human) [19]
  MFI: 1430 MFI
HLA-B*1511 (B75) (human) [20]
  MFI: 4060 MFI
HLA-B*1512 (B76) (human) [42]
  MFI: 816 MFI
HLA-B*1513 (B77) (human) [21]
  MFI: 4270 MFI
HLA-B*1516 (B63) (human)
  MFI: 3760 MFI
[23]
  MFI: 10800 MFI
HLA-B*0702 (B7) (human) [24]
  Difference % (iBead vs regular bead): 39%
HLA-B*0801 (B8) (human) [25]
  Difference % (iBead vs regular bead): -31%
HLA-B*1301 (B13) (human) [26]
  Difference % (iBead vs regular bead): -31%
HLA-B*1302 (B13) (human) [27]
  Difference % (iBead vs regular bead): -45%
HLA-B*1401 (B64) (human) [28]
  Difference % (iBead vs regular bead): -33%
HLA-B*1502 (B75) (human) [30]
  Difference % (iBead vs regular bead): 32%
HLA-B*1503 (B72) (human) [31]
  Difference % (iBead vs regular bead): -79%
HLA-B*1510 (B71) (human) [32]
  Difference % (iBead vs regular bead): 1%
HLA-B*1511 (B75) (human) [33]
  Difference % (iBead vs regular bead): -17%
HLA-B*1512 (B76) (human) [34]
  Difference % (iBead vs regular bead): 244%
HLA-B*1513 (B77) (human) [43]
  Difference % (iBead vs regular bead): -45%
HLA-B*1801 (B18) (human) [35]
  Difference % (iBead vs regular bead): 112%
[37]
  MFI: 4660 MFI
[38]
  MFI: 6240 MFI
[39]
  MFI: 3970 MFI
[40]
  Difference % (iBead MFI against regular bead MFI): 122%
[41]
  Difference % (iBead MFI against regular bead MFI): 24%
